Measured values reported in the supplement of paper PMC9876800.

System: peptide library, one residue held at a place counted from the S/T acceptor
Test: relative phosphorylation of the sub-library (ratio to the mean residue at this position); higher = residue favoured
Summary of the method: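 In 384-well plates, purified recombinant kinases (human or orthologue constructs) were incubated for 90 min under kinase-specific conditions with 50 μM biotinylated degenerate peptide sub-libraries and 50 μM ATP spiked with γ-32P-ATP. Each sub-library fixed a single residue at one position around a central Ser/Thr. Relative sub-library phosphorylation, measured by phosphorimaging and densitometry of streptavidin membrane spots, is given as a ratio to the mean residue at that position.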

PIM2, construct: Full length with a 14aa C-terminal extension from Gateway cloning, human, sequence (Q9P1W9 whole entry, looked up): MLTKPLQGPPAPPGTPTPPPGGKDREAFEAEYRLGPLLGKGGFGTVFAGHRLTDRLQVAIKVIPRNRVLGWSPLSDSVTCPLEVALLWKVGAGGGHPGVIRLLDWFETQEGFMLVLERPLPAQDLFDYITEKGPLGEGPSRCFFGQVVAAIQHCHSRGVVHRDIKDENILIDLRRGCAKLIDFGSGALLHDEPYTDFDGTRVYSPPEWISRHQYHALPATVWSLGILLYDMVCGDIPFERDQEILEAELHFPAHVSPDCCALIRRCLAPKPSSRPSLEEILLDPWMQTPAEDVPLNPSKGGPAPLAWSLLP

PIM2, construct: Full length with a 14aa C-terminal extension from Gateway cloning, human (from UniProt Q9P1W9)
relative phosphorylation
Conditions	at +1	at +2	at +3	at +4	at -1	at -2	at -3	at -4	at -5
A fixed	1.17	0.889	0.802	0.851	0.852	0.568	0.578	0.935	0.695
D fixed	0.638	0.729	0.859	0.833	0.593	0.32	0.269	0.497	0.413
E fixed	0.834	0.713	0.752	0.764	0.587	0.343	0.295	0.666	0.413
F fixed	0.653	0.75	0.909	0.874	0.887	0.911	0.388	0.776	0.547
G fixed	3.18	0.978	0.99	1.08	0.814	0.418	0.43	0.891	0.789
H fixed	0.871	1.48	1.31	1.04	1.16	2.64	0.78	1.01	1.01
I fixed	0.723	0.606	0.709	0.841	0.699	0.541	0.366	0.837	0.588
K fixed	1.14	1.33	1.24	1.28	1.33	1.7	1.91	1.9	2.91
L fixed	0.663	0.664	0.721	0.793	0.912	0.594	0.381	0.79	0.608
M fixed	0.861	0.71	0.783	0.845	0.921	0.649	0.397	0.985	0.6
N fixed	1.11	1.07	0.958	1.11	1.18	1.04	0.48	0.988	0.728
P fixed	0.727	1.13	1.04	1.3	1.86	0.524	0.453	0.755	0.791
Q fixed	1.04	1.02	1.1	1.05	0.875	0.787	0.591	0.948	0.807
R fixed	1.34	2.57	2.27	1.62	1.55	3.21	8.41	2.6	4.14
V fixed	0.765	0.65	0.695	0.793	0.871	0.571	0.405	0.906	0.642
W fixed	0.626	0.867	0.955	1.05	0.701	1.07	0.475	0.738	0.576
Y fixed	0.66	0.848	0.923	0.885	1.2	1.11	0.395	0.777	0.741
pThr fixed	0.857	0.654	0.668	0.888	0.379	0.35	0.342	0.632	0.471
pTyr fixed	0.608	0.69	0.846	0.748	0.862	0.62	0.325	0.545	0.522
